Reference: the supplement of paper PMC10567573

B1: ZNF449 (parent)
chain: FQEYDTDCEVFRQRFRQFQYREAA

Variants of: B1
Assay: protein stability index of a GFP-peptide fusion (GPS, HEK-293T) (PSI 1-6); higher = more stable
Details: c terminus: a fixed tail appended
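Further: lentivirally expressed fusions sorted by FACS into six bins by GFP to DsRed ratio, PSI derived from sequencing read proportions per bin multiplied by bin number.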

Variant	protein stability index
FQEYDTDCFVFRQRFRQFQYREAA	1.96
FQEYDTDCWVFRQRFRQFQYREAA	2.02
FQEYDTDCCVFRQRFRQFQYREAA	1.76
FQEYDTDCHVFRQRFRQFQYREAA	1.6
FQEYDTDCMVFRQRFRQFQYREAA	2.65
FQEYDTDCAVFRQRFRQFQYREAA	2
FQEYDTDCPVFRQRFRQFQYREAA	2.46
FQEYDTDCIVFRQRFRQFQYREAA	2.47
FQEYDTDCQVFRQRFRQFQYREAA	1.88
FQEYDTDCGVFRQRFRQFQYREAA	2.29
FQEYDTDCNVFRQRFRQFQYREAA	2.35
FQEYDTDCVVFRQRFRQFQYREAA	1.79
FQEYDTDCKVFRQRFRQFQYREAA	2.21
FQEYDTDCDVFRQRFRQFQYREAA	2.16
FQEYDTDCLVFRQRFRQFQYREAA	1.67
FQEYDTDCYVFRQRFRQFQYREAA	1.27
FQEYDTDCTVFRQRFRQFQYREAA	1.89
FQEEDTDCEVFRQRFRQFQYREAA	3.79
FQEVDTDCEVFRQRFRQFQYREAA	2.41
FQEMDTDCEVFRQRFRQFQYREAA	2.25
FQERDTDCEVFRQRFRQFQYREAA	2.14
FQETDTDCEVFRQRFRQFQYREAA	1.7
FQEPDTDCEVFRQRFRQFQYREAA	2.28
FQEFDTDCEVFRQRFRQFQYREAA	2.5

Variant	protein stability index
FQEHDTDCEVFRQRFRQFQYREAA	2.33
FQEDDTDCEVFRQRFRQFQYREAA	3.03
FQEKDTDCEVFRQRFRQFQYREAA	2.85
FQENDTDCEVFRQRFRQFQYREAA	2.33
FQECDTDCEVFRQRFRQFQYREAA	3.01
FQEADTDCEVFRQRFRQFQYREAA	2.12
FQEQDTDCEVFRQRFRQFQYREAA	2.66
FQEIDTDCEVFRQRFRQFQYREAA	2.42
FQESDTDCEVFRQRFRQFQYREAA	2.27
FQKYDTDCEVFRQRFRQFQYREAA	2.03
FQLYDTDCEVFRQRFRQFQYREAA	1.99
FQWYDTDCEVFRQRFRQFQYREAA	2.6
FQMYDTDCEVFRQRFRQFQYREAA	1.85
FQRYDTDCEVFRQRFRQFQYREAA	2.54
FQHYDTDCEVFRQRFRQFQYREAA	2.11
FQQYDTDCEVFRQRFRQFQYREAA	2.04
FQVYDTDCEVFRQRFRQFQYREAA	2.31
FQNYDTDCEVFRQRFRQFQYREAA	1.68
FQIYDTDCEVFRQRFRQFQYREAA	1.91
FQPYDTDCEVFRQRFRQFQYREAA	1.56
FQSYDTDCEVFRQRFRQFQYREAA	2.15
FQYYDTDCEVFRQRFRQFQYREAA	1.68
FQEYNTDCEVFRQRFRQFQYREAA	2.68
FQEYKTDCEVFRQRFRQFQYREAA	2.64

Variant	protein stability index
FQEYHTDCEVFRQRFRQFQYREAA	1.76
FQEYVTDCEVFRQRFRQFQYREAA	1.23
FQEYSTDCEVFRQRFRQFQYREAA	2.28
FQEYWTDCEVFRQRFRQFQYREAA	1.29
FQEYCTDCEVFRQRFRQFQYREAA	2.09
FQEYFTDCEVFRQRFRQFQYREAA	1.65
FQEYETDCEVFRQRFRQFQYREAA	2.45
FQEYGTDCEVFRQRFRQFQYREAA	1.78
FQEYYTDCEVFRQRFRQFQYREAA	2.55
FQEYLTDCEVFRQRFRQFQYREAA	2.5
FQEYITDCEVFRQRFRQFQYREAA	1.42
FQEYTTDCEVFRQRFRQFQYREAA	1.35
FQEYATDCEVFRQRFRQFQYREAA	2.25
FQEYRTDCEVFRQRFRQFQYREAA	1.79
FQEYMTDCEVFRQRFRQFQYREAA	2.05
FQEYQTDCEVFRQRFRQFQYREAA	1.57
FQEYDTDCEVFRLRFRQFQYREAA	1.67
FQEYDTDCEVFRFRFRQFQYREAA	1.87
FQEYDTDCEVFRDRFRQFQYREAA	2.6
FQEYDTDCEVFRKRFRQFQYREAA	2.22
FQEYDTDCEVFRCRFRQFQYREAA	2.34
FQEYDTDCEVFRNRFRQFQYREAA	2.58
FQEYDTDCEVFRERFRQFQYREAA	2.51
FQEYDTDCEVFRIRFRQFQYREAA	1.94

Variant	protein stability index
FQEYDTDCEVFRMRFRQFQYREAA	1.67
FQEYDTDCEVFRARFRQFQYREAA	2.72
FQEYDTDCEVFRHRFRQFQYREAA	2.53
FQEYDTDCEVFRGRFRQFQYREAA	1.81
FQEYDTDCEVWRQRFRQFQYREAA	2.37
FQEYDTDCEVTRQRFRQFQYREAA	3.15
FQEYDTDCEVCRQRFRQFQYREAA	2.99
FQEYDTDCEVNRQRFRQFQYREAA	3.57
FQEYDTDCEVIRQRFRQFQYREAA	2.72
FQEYDTDCEVVRQRFRQFQYREAA	3.68
FQEYDTDCEVHRQRFRQFQYREAA	3.45
FQEYDTDCEVSRQRFRQFQYREAA	2.94
FQEYDTDCEVLRQRFRQFQYREAA	2.54
FQEYDTDCEVERQRFRQFQYREAA	3.51
FQEYDTDCEVQRQRFRQFQYREAA	3.24
FQEYDTDCEVPRQRFRQFQYREAA	3.33
FQEYDTDCEVDRQRFRQFQYREAA	3.95
FQEYDTDCEVGRQRFRQFQYREAA	3.6
FQEYDTDCEVMRQRFRQFQYREAA	3.27
FQEYDTDCEVKRQRFRQFQYREAA	3.14
FQEYDTDCEVRRQRFRQFQYREAA	4.69
FQEYDTDCEVYRQRFRQFQYREAA	2.78
